According to publication PMC8219104 (2021):

Key:
[1] = target: T1, SARS-CoV-2 spike receptor-binding domain (RBD), amino acids 333 to 529, bacteria-expressed and refolded (SARS-CoV-2, UniProt P0DTC2 333-529); test: SPR
[2] = target: T1, SARS-CoV-2 spike receptor-binding …; test: SPR; remark: listed apart in the source

B1: Sybody Sb14 (VHH)
VHH: QVQLVESGGGLVQAGGSLRLSCAASGFPVQAREMEWYRQAPGKEREWVAAIKSTGTYTAYAYSVKGRFTISRDNAKNTVYLQMNSLKPEDTAVYYCYVYVGSSYIGQGTQVTVSA
[1]
  koff: 0.007 s⁻¹
[2]
  Kd: 13.8 nM

B2: Sybody Sb16 (VHH)
VHH: QVQLVESGGGLVQAGGSLRLSCAASGFPVAYKTMWWYRQAPGKEREWVAAIESYGIKWTRYADSVKGRFTISRDNAKNTVYLQMNSLKPEDTAVYYCIVWVGAQYHGQGTQVTVSA
[1]
  koff: 0.02 s⁻¹
[2]
  Kd: 40.6 nM

B3: Sybody Sb68 (VHH)
VHH: QVQLVESGGGSVQAGGSLRLSCAASGSISSITYLGWFRQAPGKEREGVAALITVNGHTYYADSVKGRFTVSLDNAKNTVYLQMNSLKPEDTALYYCAAAAWGYAWPLHQDDYWYWGQGTQVTVSA
[1]
  koff: 0.023 s⁻¹

B4: Sybody Sb15 (VHH)
VHH: QVQLVESGGGLVQAGGSLRLSCAASGFPVKNFEMEWYRKAPGKEREWVAAIQSGGVETYYADSVKGRFTISRDNAKNTVYLQMNSLKPEDTAVYYCFVYVGRSYIGQGTQVTVS
[1]
  koff: 0.011 s⁻¹
